For the assay, the target named is Avi-tagged HSP90β (full-length human HSP90β, residues 1–724) (human) (UniProt P08238).

This is an account of results in paper PMC8857470, “Molecular insights into the maturation of phosphodiesterase 6 by the specialized chaperone complex of HSP90 with AIPL1” (The Journal of Biological Chemistry, 2022).

Numbering of substitutions follows the chain as printed. Numbers in names are those of the source.

Chain of Avi-tagged HSP90β (full-length human HSP90β, residues 1–724) (human) (P08238 whole entry, the tested form may be a part): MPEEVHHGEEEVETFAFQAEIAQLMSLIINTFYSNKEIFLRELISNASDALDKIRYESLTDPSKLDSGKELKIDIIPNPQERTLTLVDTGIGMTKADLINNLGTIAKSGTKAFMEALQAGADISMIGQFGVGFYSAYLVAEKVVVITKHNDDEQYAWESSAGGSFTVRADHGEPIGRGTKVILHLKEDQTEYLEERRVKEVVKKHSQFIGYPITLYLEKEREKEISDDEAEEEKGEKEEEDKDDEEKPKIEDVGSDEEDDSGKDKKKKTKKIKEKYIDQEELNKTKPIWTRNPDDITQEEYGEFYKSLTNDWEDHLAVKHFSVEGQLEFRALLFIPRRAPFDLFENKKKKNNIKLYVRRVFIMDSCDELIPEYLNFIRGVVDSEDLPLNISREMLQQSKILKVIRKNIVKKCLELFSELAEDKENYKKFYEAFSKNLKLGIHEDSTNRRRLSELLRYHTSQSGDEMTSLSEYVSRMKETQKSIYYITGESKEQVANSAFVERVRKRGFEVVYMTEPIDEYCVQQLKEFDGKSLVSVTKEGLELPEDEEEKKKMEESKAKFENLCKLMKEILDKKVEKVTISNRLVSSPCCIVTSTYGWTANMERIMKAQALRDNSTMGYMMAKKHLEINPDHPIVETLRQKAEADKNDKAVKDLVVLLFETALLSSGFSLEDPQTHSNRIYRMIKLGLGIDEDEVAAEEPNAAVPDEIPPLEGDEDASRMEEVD

B1: AIPL1-K265A (natural protein)
chain: MDVSLLLNVEGVKKTILHGGTGELPSFITGSRVTFHFRTMKCDDERTVIDDSKQVGQPMSIIIGNMFKLEVWETLLTSMRLGEVAEFWCDTIHTGVYPMLSRSLRQVAEGKDPTSWHVHTCGLANMFAYHTLGYEDLDELQKEPQPLVFLIELLQVEAPNEYQRETWNLNNEERMQAVPLLHGEGNRLYKLGRYDQAATKYQEAIVCLRNLQTKEKPWEVEWLKLEKMINTLILNYCQCLLKKEEYYEVLEHTSDILRHHPGIVAAYYMRARAHAEVWNAEEAKADLEKVLELEPSMRKAVLRELRLLESRLADKQEEERQRCRSMLG
B1 gave a cGMP hydrolysis (PDE6 activity) in lysates of HEK293T cells cotransfected with PDE6C, Pγ and the AIPL1 mutant (nmol•min^−1• mg^−1) of 8.8.

B2: AIPL1-K265W (natural protein)
chain: B1 chain with A265W
In turn, B2 yielded a cGMP hydrolysis (PDE6 activity) in lysates of HEK293T cells cotransfected with PDE6C, Pγ and the AIPL1 mutant (nmol•min^−1• mg^−1) of 3.
